Earlier results, collected in patent US6713294B1, “DNA glycosylases and their use” (priority 1996, dated 2004).

Test system: imidazole ring-opened form of 7-methylguanine-DNA substrate
Details: Boiteux et al. (1990); cited from earlier work

B1: FPG protein: formamido-pyrimidine-DNA glycosylase (protein, UniProt P05523 2-269, looked up)
Formamidopyrimidine-DNA …: PELPEVETSRRGIEPHLVGATILHAVVRNGRLRWPVSEEIYRLSDQPVLSVQRRAKYLLLELPEGWIIIHLGMSGSLRILPEELPPEKHDHVDLVMSNGKVLRYTDPRRFGAWLWTKELEGHNVLTHLGPEPLSDDFNGEYLHQKCAKKKTAIKPWLMDNKLVVGVGNIYASESLFAAGIHPDRLASSLSLAECELLARVIKAVLLRSIEQGGTTLKDFLQSDGKPGYFAQELQVYGRKGEPCRVCGTPIVATKHAQRATFYCRQCQK
Kcat on imidazole ring-opened form of 7-methylguanine-DNA: 0.0233 s⁻¹
